Assay results reported in FireProtDB (doi:10.1021/bi9928694).

Details: Homo sapiens, reversible: yes, whole UniProt chain shown
[1] = pH 2.7, Thermal, DSC, glycine-HCl 0.05 M
[2] = pH 4, 10 °C, GdnHCl, CD, glycine-HCl 40 mM

B1: Lysozyme C wild type, P61626 (protein)
chain: MKALIVLGLVLLSVTVQGKVFERCELARTLKRLGMDGYRGISLANWMCLAKWESGYNTRATNYNAGDRSTDYGIFQINSRYWCNDGKTPGAVNACHLSCSALLQDNIADAVACAKRVVRDPQGIRAWVAWRNRCQNRDVRQYVQGCGV
[1]
  Tm: 64.9 °C
  heat capacity change of unfolding: 1.58 kcal/mol/K
  unfolding enthalpy (calorimetric): 114 kcal/mol
[2]
  denaturant midpoint (higher = more stable): 3.96 M
  unfolding free energy: 14.3 kcal/mol
